Numbering of substitutions follows the chain as printed. Values belong to the binder of their own block, whether it stands above or below them.
Key:
[1] = molecular target: T1, Recombinant Human TNF-α/TNFSF1A (human, UniProt P01375 77-233); test: SPR (BIACORE), antibody captured, TNFα in solution
T1 construct: also called hTNF-α; huTNFα
Protocol: The BIACORE assay (Biacore, Inc, Piscataway, N.J.) determines the affinity of antibodies with kinetic measurements of on-rate and off-rate constants. Binding of antibodies to a target antigen (for example, a purified recombinant target antigen) is determined by surface plasmon resonance-based measurements with a Biacore® 1000 or 3000 instrument (Biacore® AB, Uppsala, Sweden) using running HBS-EP (10 mM HEPES [pH 7.4], 150 mM NaCl, 3 mM EDTA, and 0.005% surfactant P20) at 25° C. All chemicals are obtained from Biacore® AB (Uppsala, Sweden) or otherwise from a different source as described. For example, approximately 5000 RU of goat anti-mouse IgG, (Fcγ), fragment specific polyclonal antibody (Pierce Biotechnology Inc, Rockford, Ill.) diluted in 10 mM sodium acetate (pH 4.5) is directly immobilized across a CM5 research grade biosensor chip using a standard amine coupling kit according to manufacturer's instructions and procedures at 25 μg/ml. Unreacted moieties on the biosensor surface are blocked with ethanolamine. Modified carboxymethyl dextran surface in flowcell 2 and 4 is used as a reaction surface. Unmodified carboxymethyl dextran without goat anti-mouse IgG in flow cell 1 and 3 is used as the reference surface. For kinetic analysis, rate equations derived from the 1:1 Langmuir binding model are fitted simultaneously to association and dissociation phases of all eight injections (using global fit analysis) with the use of Biaevaluation 4.0.1 software. Purified antibodies are diluted in HEPES-buffered saline for capture across goat anti-mouse IgG specific reaction surfaces. Antibodies to be captured as a ligand (25 μg/ml) are injected over reaction matrices at a flow rate of 5 μl/minute. The association and dissociation rate constants, kₒₙ (M⁻¹ s⁻¹) and koff (s⁻¹), are determined under a continuous flow rate of 25 μl/minute. Rate constants are derived by making kinetic binding measurements at different antigen concentrations ranging from 10-200 nM. The equilibrium dissociation constant (M) of the reaction between antibodies and the target antigen is then calculated from the kinetic rate constants by the following formula: KD=koff/kₒₙ. Binding is recorded as a function of time and kinetic rate constants are calculated. In this assay, on-rates as fast as 10⁶ M⁻¹ s⁻¹ and off-rates as slow as 10⁻⁶ s⁻¹ can be measured.

[2] = molecular target: T1, Recombinant Human TNF-α/TNFSF1A; test: cell-based or functional assay

T1 sequence (P01375 77-233 limits assumed): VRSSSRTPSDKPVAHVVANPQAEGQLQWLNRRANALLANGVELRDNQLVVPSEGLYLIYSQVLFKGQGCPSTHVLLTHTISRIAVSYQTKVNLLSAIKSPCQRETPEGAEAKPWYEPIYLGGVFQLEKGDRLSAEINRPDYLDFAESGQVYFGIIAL

- Kd [1]: 2.1 nM
- koff [1]: 0.0014 s⁻¹
- kon [1]: 660000 M⁻¹ s⁻¹
B1: AB384 (antibody, V domains shown)
VH: EIQLVQSGAEVKKPGASVKVSCKASGYTFTNYGMNWVRQAPGQGLEWMGWINTYTGEPTYADDFKGRVTFTTDTSTSTAYMELSSLRSEDTAVYYCARKFLTTVVVTDYAMDYWGQGTTVTVSS
VL: DVVMTQSPAFLSVTPGEKVTITCRASQDISNYLNWYQQKPDQAPKLLIKYTSRLQSGVPSRFSGSGSGTDFTFTISSLEAEDAATYYCQQGNTLPPTFGQGTKLEIK
notes: Full-length humanized antibody made in HEK 293-6E; also called hMAK199VH.2b/hMAK199VL.2

- Kd [1]: 1.4 nM
- koff [1]: 0.0013 s⁻¹
- kon [1]: 880000 M⁻¹ s⁻¹
B2: AB378 (antibody, V domains shown)
VH: B1 VH with V68F, T72L, Y95F
VL: B1 VL
notes: Full-length humanized antibody made in HEK 293-6E; also called hMAK199VH.2a/hMAK199VL.2

- Kd [1]: 1.2 nM
- koff [1]: 0.0011 s⁻¹
- kon [1]: 950000 M⁻¹ s⁻¹
B3: AB372 (antibody, V domains shown)
VH: B1 VH with I2V, F70M
VL: B1 VL
notes: Full-length humanized antibody made in HEK 293-6E; also called hMAK199VH.2/hMAK199VL.2

- Kd [1]: 0.46 nM
- koff [1]: 0.00092 s⁻¹
- kon [1]: 2e+06 M⁻¹ s⁻¹
- TNFα Neutralization Assay IC50 nM (L929 cells) [2]: 0.66 nM
B4: AB353 (antibody, V domains shown)
VH: EVQLVQSGSELKKPGASVKVSCKASGYTFTNYGMNWVRQAPGQGLEWMGWINTYTGEPTYADDFKGRFVFSLDTSVSTAYLQISSLKAEDTAVYYCARKFLTTVVVTDYAMDYWGQGTTVTVSS
VL: DIQMTQSPSSLSASVGDRVTITCRASQDISNYLNWYQQKPGKAPKLLIYYTSRLQSGVPSRFSGSGSGTDYTLTISSLQPEDFATYYCQQGNTLPPTFGQGTKLEIK
notes: Full-length humanized antibody made in HEK 293-6E; also called hMAK199VH.1/hMAK199VL.1b

- Kd [1]: 0.67 nM
- koff [1]: 0.00089 s⁻¹
- kon [1]: 1.3e+06 M⁻¹ s⁻¹
- TNFα Neutralization Assay IC50 nM (L929 cells) [2]: 0.87 nM
B5: AB356 (antibody, V domains shown)
VH: B4 VH
VL: B1 VL with V2I, K49Y, F71Y
notes: Full-length humanized antibody made in HEK 293-6E; also called hMAK199VH.1/hMAK199VL.2b

- Kd [1]: 1.1 nM
- koff [1]: 0.0012 s⁻¹
- kon [1]: 1e+06 M⁻¹ s⁻¹
- TNFα Neutralization Assay IC50 nM (L929 cells) [2]: 3.78 nM
B6: AB370 (antibody, V domains shown)
VH: B1 VH with I2V, F70M
VL: B4 VL with A43T, P44V, Y87F
notes: Full-length humanized antibody made in HEK 293-6E; also called hMAK199VH.2/hMAK199VL.1a

- Kd [1]: 1.1 nM
- koff [1]: 0.001 s⁻¹
- kon [1]: 940000 M⁻¹ s⁻¹
- TNFα Neutralization Assay IC50 nM (L929 cells) [2]: > 20 nM
B7: AB369 (antibody, V domains shown)
VH: B1 VH with I2V, F70M
VL: B4 VL with Y71F
notes: Full-length humanized antibody made in HEK 293-6E; also called hMAK199VH.2/hMAK199VL.1

- Kd [1]: 1.8 nM
- koff [1]: 0.0015 s⁻¹
- kon [1]: 820000 M⁻¹ s⁻¹
- TNFα Neutralization Assay IC50 nM (L929 cells) [2]: > 20 nM
B8: AB380 (antibody, V domains shown)
VH: B1 VH with V68F, T72L, Y95F
VL: B1 VL with V2I, K49Y, F71Y
notes: Full-length humanized antibody made in HEK 293-6E; also called hMAK199VH.2a/hMAK199VL.2b

- Kd [1]: 0.89 nM
- koff [1]: 0.0011 s⁻¹
- kon [1]: 1.2e+06 M⁻¹ s⁻¹
- TNFα Neutralization Assay IC50 nM (L929 cells) [2]: 0.35 nM
B9: AB364 (antibody, V domains shown)
VH: B4 VH with Y95F
VL: B4 VL with A43T, P44V, Y87F
notes: Full-length humanized antibody made in HEK 293-6E; also called hMAK199VH.1b/hMAK199VL.1a

- Kd [1]: 1 nM
- koff [1]: 0.0011 s⁻¹
- kon [1]: 1.1e+06 M⁻¹ s⁻¹
- TNFα Neutralization Assay IC50 nM (L929 cells) [2]: 1.09 nM
B10: AB368 (antibody, V domains shown)
VH: B4 VH with Y95F
VL: B1 VL with V2I, K49Y, F71Y
notes: Full-length humanized antibody made in HEK 293-6E; also called hMAK199VH.1b/hMAK199VL.2b

- Kd [1]: 0.59 nM
- koff [1]: 0.0014 s⁻¹
- kon [1]: 2.4e+06 M⁻¹ s⁻¹
- TNFα Neutralization Assay IC50 nM (L929 cells) [2]: 1.9 nM
B11: AB355 (antibody, V domains shown)
VH: B4 VH
VL: B1 VL with V2I, A43T, P44V, K49Y, F71Y, Y87F
notes: Full-length humanized antibody made in HEK 293-6E; also called hMAK199VH.1/hMAK199VL.2a

- koff [1]: 0.00068 s⁻¹
- kon [1]: 2e+06 M⁻¹ s⁻¹
- TNFα Neutralization Assay IC50 nM (L929 cells) [2]: 1.06 nM
B12: AB351 (antibody, V domains shown)
VH: B4 VH
VL: B4 VL with Y71F
notes: Full-length humanized antibody made in HEK 293-6E; also called hMAK199VH.1/hMAK199VL.1

- Kd [1]: 0.52 nM
- koff [1]: 0.001 s⁻¹
- kon [1]: 2e+06 M⁻¹ s⁻¹
B13: AB354 (antibody, V domains shown)
VH: B4 VH
VL: B1 VL
notes: Full-length humanized antibody made in HEK 293-6E; also called hMAK199VH.1/hMAK199VL.2

- Kd [1]: 0.79 nM
- koff [1]: 0.00098 s⁻¹
- kon [1]: 1.2e+06 M⁻¹ s⁻¹
- TNFα Neutralization Assay IC50 nM (L929 cells) [2]: 0.82 nM
B14: AB361 (antibody, V domains shown)
VH: B4 VH with V2I, Y95F
VL: B1 VL with V2I, A43T, P44V, K49Y, F71Y, Y87F
notes: Full-length humanized antibody made in HEK 293-6E; also called hMAK199VH.1a/hMAK199VL.2a

- Kd [1]: 0.91 nM
- koff [1]: 0.001 s⁻¹
- kon [1]: 1.1e+06 M⁻¹ s⁻¹
- TNFα Neutralization Assay IC50 nM (L929 cells) [2]: 1.52 nM
B15: AB365 (antibody, V domains shown)
VH: B4 VH with Y95F
VL: B4 VL
notes: Full-length humanized antibody made in HEK 293-6E; also called hMAK199VH.1b/hMAK199VL.1b

- Kd [1]: 0.45 nM
- koff [1]: 0.00094 s⁻¹
- kon [1]: 2.1e+06 M⁻¹ s⁻¹
- TNFα Neutralization Assay IC50 nM (L929 cells) [2]: 0.35 nM
B16: AB352 (antibody, V domains shown)
VH: B4 VH
VL: B4 VL with A43T, P44V, Y87F
notes: Full-length humanized antibody made in HEK 293-6E; also called hMAK199VH.1/hMAK199VL.1a

- Kd [1]: 0.83 nM
- koff [1]: 0.0011 s⁻¹
- kon [1]: 1.3e+06 M⁻¹ s⁻¹
- TNFα Neutralization Assay IC50 nM (L929 cells) [2]: 2.11 nM
B17: AB362 (antibody, V domains shown)
VH: B4 VH with V2I, Y95F
VL: B1 VL with V2I, K49Y, F71Y
notes: Full-length humanized antibody made in HEK 293-6E; also called hMAK199VH.1a/hMAK199VL.2b

- Kd [1]: 0.93 nM
- koff [1]: 0.0015 s⁻¹
- kon [1]: 1.6e+06 M⁻¹ s⁻¹
B18: AB366 (antibody, V domains shown)
VH: B4 VH with Y95F
VL: B1 VL
notes: Full-length humanized antibody made in HEK 293-6E; also called hMAK199VH.1b/hMAK199VL.2

- Kd [1]: 0.7 nM
- koff [1]: 0.00097 s⁻¹
- kon [1]: 1.4e+06 M⁻¹ s⁻¹
- TNFα Neutralization Assay IC50 nM (L929 cells) [2]: 0.21 nM
B19: AB358 (antibody, V domains shown)
VH: B4 VH with V2I, Y95F
VL: B4 VL with A43T, P44V, Y87F
notes: Full-length humanized antibody made in HEK 293-6E; also called hMAK199VH.1a/hMAK199VL.1a

- Kd [1]: 1.4 nM
- koff [1]: 0.0015 s⁻¹
- kon [1]: 1.1e+06 M⁻¹ s⁻¹
- TNFα Neutralization Assay IC50 nM (L929 cells) [2]: > 20 nM
B20: AB377 (antibody, V domains shown)
VH: B1 VH with V68F, T72L, Y95F
VL: B4 VL
notes: Full-length humanized antibody made in HEK 293-6E; also called hMAK199VH.2a/hMAK199VL.1b

- Kd [1]: 0.67 nM
- koff [1]: 0.0013 s⁻¹
- kon [1]: 1.9e+06 M⁻¹ s⁻¹
- TNFα Neutralization Assay IC50 nM (L929 cells) [2]: 1.94 nM
B21: AB357 (antibody, V domains shown)
VH: B4 VH with V2I, Y95F
VL: B4 VL with Y71F
notes: Full-length humanized antibody made in HEK 293-6E; also called hMAK199VH.1a/hMAK199VL.1

- Kd [1]: 0.73 nM
- koff [1]: 0.00093 s⁻¹
- kon [1]: 1.3e+06 M⁻¹ s⁻¹
- TNFα Neutralization Assay IC50 nM (L929 cells) [2]: 3.78 nM
B22: AB359 (antibody, V domains shown)
VH: B4 VH with V2I, Y95F
VL: B4 VL
notes: Full-length humanized antibody made in HEK 293-6E; also called hMAK199VH.1a/hMAK199VL.1b

- Kd [1]: 0.78 nM
- koff [1]: 0.00097 s⁻¹
- kon [1]: 1.2e+06 M⁻¹ s⁻¹
B23: AB360 (antibody, V domains shown)
VH: B4 VH with V2I, Y95F
VL: B1 VL
notes: Full-length humanized antibody made in HEK 293-6E; also called hMAK199VH.1a/hMAK199VL.2

- Kd [1]: 1 nM
- koff [1]: 0.001 s⁻¹
- kon [1]: 1e+06 M⁻¹ s⁻¹
- TNFα Neutralization Assay IC50 nM (L929 cells) [2]: 0.53 nM
B24: AB367 (antibody, V domains shown)
VH: B4 VH with Y95F
VL: B1 VL with V2I, A43T, P44V, K49Y, F71Y, Y87F
notes: Full-length humanized antibody made in HEK 293-6E; also called hMAK199VH.1b/hMAK199VL.2a

- Kd [1]: 0.86 nM
- koff [1]: 0.0012 s⁻¹
- kon [1]: 1.4e+06 M⁻¹ s⁻¹
- TNFα Neutralization Assay IC50 nM (L929 cells) [2]: 0.32 nM
B25: AB363 (antibody, V domains shown)
VH: B4 VH with Y95F
VL: B4 VL with Y71F
notes: Full-length humanized antibody made in HEK 293-6E; also called hMAK199VH.1b/hMAK199VL.1
